Among the data in publication PMC8041772, “Activation mechanism of a small prototypic Rec-GGDEF diguanylate cyclase” (Nature Communications, 2021) are Ki and stoichiometry N values, retold here.

Assay [1] addresses T1, DgcR (Leptospira biflexa, UniProt B0SUI1).
T1 construct: gene LEPBI_p0053; full-length (298 residues), dimer
T1 sequence (B0SUI1 1-298): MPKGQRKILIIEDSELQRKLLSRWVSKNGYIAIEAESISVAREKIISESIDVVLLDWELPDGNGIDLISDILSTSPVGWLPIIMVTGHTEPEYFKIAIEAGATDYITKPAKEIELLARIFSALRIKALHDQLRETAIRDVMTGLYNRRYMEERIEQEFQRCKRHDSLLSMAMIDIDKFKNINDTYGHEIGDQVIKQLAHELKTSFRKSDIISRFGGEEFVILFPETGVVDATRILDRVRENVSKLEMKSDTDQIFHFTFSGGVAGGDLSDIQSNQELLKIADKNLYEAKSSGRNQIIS
The assay can be described thus: crystal structure at […] Å (DgcR_inh); product-inhibition Ki from progress curves (oIEC), about […] for BeF3-activated and about […] for native enzyme. Type of assay: biochemical.

Assay [2] deals with DgcR (LEPBI_RS18680, diguanylate cyclase controlled by Rec) from Leptospira biflexa, wild type, native (Leptospira biflexa). The experiment in a line: SEC-MALS; in-line multi-angle light scattering and refractive index; 100 µL loaded at 0.5 to 10 mg/mL with various ligands; 20 mM Tris pH 8.0, 500 mM NaCl (or 20 mM NaCl), 5 mM MgCl2, 1 mM DTT; substrate analogue, product or lower salt did not change the quaternary state. (In general: SEC sorts molecules by how far they enter the pores of the column.)

The target of assay [3] is DgcR wild type, BeF3- modified (pseudo-phosphorylated, activated) (Leptospira biflexa). The assay is described as above.

pKi: −log10 of the molar value.

Regarding `Nc1nc2c(ncn2[C@@H]2O[C@@H]3CO[P@](=O)(O)O[C@H]4[C@@H](O)[C@H](n5cnc6c(=O)[nH]c(N)nc65)O[C@@H]4CO[P@](=O)(O)O[C@H]3[C@H]2O)c(=O)[nH]1` [c-di-GMP], in assay [1], the pKi was ~6.82.
For the compound “DgcR (LEPBI_RS18680, diguanylate cyclase controlled by Rec) from Leptospira biflexa, wild type, native (enzyme)”, in assay [2], the stoichiometry N was 2.
In the case of “DgcR wild type, BeF3- modified (pseudo-phosphorylated, activated) (enzyme)”, the stoichiometry N in assay [3] was 2.

The pKi is the Ki on a negative log10 scale, so that one unit is a factor of ten. A lower pKi goes with a large Ki. A word on the stoichiometry N: it is the number of molecules, sites or subunits per partner or assembly.
